{
  "source": "paper PMC9317960",
  "about": "(Biochemical Journal, 2022)",
  "target": "T1, SCRIB PDZ3 K1040A (human, UniProt Q14160 1002-1094, K1040A)",
  "T1 sequence": "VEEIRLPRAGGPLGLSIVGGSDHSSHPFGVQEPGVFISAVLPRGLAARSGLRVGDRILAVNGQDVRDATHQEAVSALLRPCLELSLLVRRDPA",
  "assay": "ITC",
  "conditions": "both partners purified",
  "data": [
    {"binder": "LRLESSII", "note": "[TBEV NS5_CTN peptide (C-terminal PBM of NS5)]", "values": [
      {"measurement": "Kd", "result": 12.5, "unit": "µM"},
      {"measurement": "dH", "result": -6.7, "unit": "kcal/mol"},
      {"measurement": "stoichiometry N", "result": 0.9}
    ]}
  ]
}
